From paper PMC7445770 come the findings set out here.

The assay deals with RNA polymerase (RNAP), core enzyme without sigma factor (E. coli (endogenous in the cell-free extract)).

Turning to “sigma factor 28 (from UniProt P0AEM6 1-239) (natural protein)”, the Kσ28: dissociation constant obtained by fitting a nonlinear ODE model to GFP/mRNA time-series responses of the pTar-tetO combinatorial promoter in E. coli TX-TL cell-free extract (29°C) was found to be 5.3 pM.
Turning to “sigma factor 70 (from UniProt P00579 1-613) (natural protein)”, the Kσ70: dissociation constant obtained by fitting a nonlinear ODE model to GFP/mRNA time-series responses of the pTar-tetO combinatorial promoter in E. coli TX-TL cell-free extract (29°C) was 0.0018 pM.
